Results published in the DeepSol protein solubility set.

Assay: soluble on expression in E. coli; label from the status in PepcDB or PDB records

Sequence | soluble on expression in E. coli
MGSDKIHHHHHHMPKLVTWMNNQRVGELTKLANGAHTFKYAPEWLASRYARPLSLSLPLQRGNITSDAVFNFFDNLLPDSPIVRDRIVKRYHAKSRQPFDLLSEIGRDSVGAVTLIPEDETVTHPIMAWEKLTEARLEEVLTAYKADIPLGMIREENDFRISVAGAQEKTALLRIGNDWCIPKGITPTTHIIKLPIGEIRQPNATLDLSQSVDNEYYCLLLAKELGLNVPDAEIIKAGNVRALAVERFDRRWNAERTVLLRLPQEDMCQTFGLPSSVKYESDGGPGIARIMAFLMGSSEALKDRYDFMKFQVFQWLIGATDGHAKNFSVFIQAGGSYRLTPFYDIISAFPVLGGTGIHISDLKLAMGLNASKGKKTAIDKIYPRHFLATAKVLRFPEVQMHEILSDFARMIPAALDNVKTSLPTDFPENVVTAVESNVLRLHGRLSREYGSK | not soluble
MTEPRSYTIEEIASLLKVSKLTVYDLVKKGKLPAFRVGRQMRITADDLRRFIAGQKGEASTVFSAVSRPTETAFRPIIISGQDMALDLLGVHLEKGGPYQSLRTYTSSLNGLIALYKGQCDIVSVHLFDGQTGEYNRPYVEKLLTGHAYIMVNLMRRPIGFYVPKGNPRGIHTWSDLGRSDVVIVNREKGAGARVLLDEQLRLHGLSPSAIRGYEREETSHLSVASAVAAGLADVGIGTEKVARMAGVEFIPLMNEQYDVVMLRTPENESLIASVLDVLRSDSFRAELEALGGYDVSQTGRIMAEYG | not soluble
MKLLTSPFQGLKWLAPLLADDGSLHIPPQDLIQHKGISSWEVKVIVTRIDFLADQVTGTAIHQLTIDPARPFSGTEVPINITGEGTLLVTMQITAMSEDRPYCNRQYLAADIIAVVPPGVQNKVHNITHPAAPTIQHLSVGGGYTPIRQLVVQRE | not soluble
SELPRKANRRNSSCSSISSVSESSSPSALDESTLTKILPTDNFRGGRGFASPSPPTSLLSEPLSRMDVLSEKIWDYHNKVSQTDEMLQRKLHLRDMLYTAISPVFPLSGLYVVGSSLNGFGNNSSDMDLCLMITNKDLDQKNDAVVVLNLILSTLQYEKFVESQKLILAKVPILRINFAAPFDDITVDLNANNSVAIRNTHLLCYYSSYDWRVRPLVSVVKEWAKRKGINDANKSSFTSYSLVLMVIHFLQCGPTKVLPNLQQSYPNRFSNKVDVRTLNVTMALEEVADDIDQSLSEKTTLGELLIGFLDYYANEFNYDRDAISIRQGRRVERAALAVRPKIHSNSEGDKETPPPSSSASTSSIHNGGTPGIPMHHSISNPHFWRSQWRCVCIEEPFTNSNTAHSIYDEMVFEAIKKAFREAHGELQHNHDLDKLMECEPIKASTTNTGAAVFAATYEGERPLAQQPNTIACASLRVLNSIPVSSGPGHYHYQQQSNQNLSRPQRPGSNQGYQMNNNRGFNGNNQQQHQNRRSFNNQSSSNPGNGSTGPRSSRSNENVRDSSRQQNSQKGSSGVSVSKENVASTTGVPVDKKQQNSNRKDDGNRTKRSPMVQSPEPAKTKSEKTPMASSNVSQ | soluble
MIALGIEGTAWSLSIGVVDEEGVIALENDPYIPKEGGIHPREASQHHSERLPSLLSRVFEKVDKNSIDVVAFSQGPGMGPCLRVVATAARLLAIKLEKPLVGVNHCLAHVEVGRWQTGARKPVSLYVSGGNSQVIARRGNRYRVFGETLDIGIGNALDKLARHMGLKHPGGPKIEELAKKGQKYHFLPYVVKGMDFSFSGMVTAAQRLFDSGVRMEDVAFSFQETAFAMLTEVTERALAYLDLNEVLLVGGVAANKRLQEMLRIMCEDRGAKFYVPPKELAGDNGAMIAYTGLLMYKHGHQTPVEKSYVRPDFRIEDVEVNWD | soluble
MAKGIPVLEIFGPTIQGEGMVIGQKTMFVRTAGCDYSCSWCDSAFTWDGSAKKDIRWMTAEEIFAELKDIGGDAFSHVTISGGNPALLKQLDAFIELLKENNIRAALETQGTVYQDWFTLIDDLTISPKPPSSKMVTNFQKLDHILTSLQENDRQHAVSLKVVIFNDEDLEFAKTVHKRYPGIPFYLQVGNDDVHTTDDQSLIAHLLGKYEALVDKVAVDAELNLVRVLPQLHTLLWGNKRGV | not soluble
MTSGKIHNPLNRQHSELRSKNVSLSNGDPFTIALFGVDSNAQRKSENDGERSDTIMLLSINPKKQTTEIVSVPRDTQAEIVGKGTTEKINHAYAYGGPTMAVKSLEKLMNVPIDHYATVDMDGLHDMIDALGGVNVTSNDTFTTKGTNFVKGQSTHVDGDTAMAFIRSRKEEGAGGDFGRQERQQLILQAMANKMTSTSALTHFPSLINQIQKNVKTDLTLNDMNDIRKNYKNANTTVNRHQLEGQGGIQDDGLWYFIPNDDSKQSATEILNNNLQNLEHHHHHH | soluble
MSEDIFDAIIVGAGLAGSVAALVLAREGAQVLVIERGNSAGAKNVTGGRLYAHSLERIIPGFADQAPIERMITHEKLAFMTDNGAMTIDYCNGEDASASQVSYSVLRSKFDAWLMEQAEEAGAQLITGIRVDNVVQRDGKVVGVEADGDILEAKVVILADGVNSLLAEKLGMTKRVEASHVAVGVKELIELPKLVIEDRFQLQGNEGAACLFAGAPTDGLMGGGFLYTNETTLSLGLVCGLHHLKDAKKSVPQMLEDFKQHPAVAPLIAGGKLVEYAAHVVPEAGMNMQPELVGDGVLIAGDAAGMCMNLGFTIRGMDLAISAGEAAAKTVLSAMKRDDFSKQSLGEYRQHLDEGPMRDMRMYQKLPAFLDNPRMFTAYPEMAVNIARDLFTVDGSAPVPMRKKILRHAKKVGFINLMKDGLKGVTVL | not soluble
MRILAFPYTHTLSHLSRVLAVALELRRMGHEVVFAGESAKVSFVSQQGFDVVPIHEPDPEMLFGNIRSGKLRFVEDAELLQMLTADIEVIRSLKPDLVLSDGRFSAPLSTHLTNVRHAAIVNASSTEYRALPYVPFFDWMPPWLISRDAMIWKALVRLNLFLEMKLFDNVMKVFKRLSRELNTNRTVTATNCLTGKDITLLADIPEYFPSRNLPASYHYVGPLTWKSVLAPPAWWPLDIPSSPLVYVTMGTTGVSEFFSKLGPSLSTSFFSSIVTTGGQSSELKPMPGKVYVESYLDGDLVMERSDVVICHGGNGTIYQALSHGKPVIGIPTIPDQKFNMRRVEAMGFGKSLDLKQFLEKPSLLADTVKQVLSDHSFRNSAQKIQAVLKSYNAATTSAKILIDSILLEHHHHHH | not soluble
MTDYDLAKETAAWLNKQLQIRPVLGIVCGSGLGKIGDSLETSITVAYSDIPNFPVGSVKGHAGSLIFGSVNGVSCVCMKGRFHLYEGHTAARATFPMRVFKALGVKIVVLTNAAGGLNPSYRPGDFMVVRDHINLPGLAGANPLTGPNDDTEGERFPSMTSVYDKTLRKYAISAARELGMSYATHEGVYCCVNGPSFETPAECKILRLMGSDAVGMSTAPETIVAKHGGMRCLAVSLISNVIASNCETPAEPTHEEVLRAGEEASARMTALVKLVIEKIRGELPR | soluble
MNHVAVIGGGIIGASWAVVFARRGLEVTIVERDAACLAGLPARLAGMIERSASLLGAGEQPGDVAARIGATDALAAAVGRADYVQEAVSENLALKRTLFAELDALAPAHALLASSTSTYGASQFTEALAGRARCLVAHPMTPPHLSPVVEMAASAWTDPQVLAGAEAFMRSLGQHPVRIRKEIPGFVLNRLQGALLMEMFRVIADDVISPADADALISQGLGLRWATLGPLEGVDLNAPGGIADYLQRYGHIFNDMAVGQGLPAPVDAELISALDGAMRAALPLERLEAKRGWRDRAIAGVRVALHDYTGEKPLEHHHHHH | not soluble
VRPHWRDLETLRLAAQRFGDGDLSSRTRIFRRSDIRTLAQHFNQMADRIESLISNQRELTNAVSHELRTPISRLSFELEQLNKQVDAEVRHDLIEDMRADLGELEEMVSELLTYARLEHGNVGSHREIVDAASWLDSVVADVALEAEAAGVTCEISACQVEQIRIEPRFMARAVINLLRNAIRHAHSRVEIALLDQGDSCQIRVNDDGPGIPADARQKIFEPFSRLDDSRDRSTGGFGLGLAIVHRVAQWHGGYAEALETPQGGASFRLTWERPR | not soluble
ESLSGEDAFPYRHQIVEIPPIELIVIEHRLHQLTCGQCGTNTRAKLPDDVNPSEYGVRVVAMVALLSGVYRNSQRMVQSALADLFGISMSLGTVNTLRIEANNAVANCVDEAKLYVQHSNVVGADETGFNQGNIDGGNPKQRQAWLWVGVTPLVTFFEVALTRCTSAVKNLLGENFAGILTSDRHGAYNWVDI | not soluble
MRRGNRRTPGPVCRQAFRAEFTAIHAPVVFFMSCNRQIVRSLRQQIPSFECVPGCHDCCGPVTTSPEEMSRLPRKTAAEQEAAMDELNCVHLGPNGCTVYDERPLICRLFGTTPSLPCPNGRRPVEMIHPRVEKQIHDYMASTRQVLVLEHHHHHH | not soluble
